Consider one molecule from PMC4253524 (The EMBO Journal, 2014).

The assay deals with T1, Flag-tagged RelishΔS29-S45 (Drosophila melanogaster, UniProt Q94527 1-971, ΔS29-S45).
T1 sequence (looked up): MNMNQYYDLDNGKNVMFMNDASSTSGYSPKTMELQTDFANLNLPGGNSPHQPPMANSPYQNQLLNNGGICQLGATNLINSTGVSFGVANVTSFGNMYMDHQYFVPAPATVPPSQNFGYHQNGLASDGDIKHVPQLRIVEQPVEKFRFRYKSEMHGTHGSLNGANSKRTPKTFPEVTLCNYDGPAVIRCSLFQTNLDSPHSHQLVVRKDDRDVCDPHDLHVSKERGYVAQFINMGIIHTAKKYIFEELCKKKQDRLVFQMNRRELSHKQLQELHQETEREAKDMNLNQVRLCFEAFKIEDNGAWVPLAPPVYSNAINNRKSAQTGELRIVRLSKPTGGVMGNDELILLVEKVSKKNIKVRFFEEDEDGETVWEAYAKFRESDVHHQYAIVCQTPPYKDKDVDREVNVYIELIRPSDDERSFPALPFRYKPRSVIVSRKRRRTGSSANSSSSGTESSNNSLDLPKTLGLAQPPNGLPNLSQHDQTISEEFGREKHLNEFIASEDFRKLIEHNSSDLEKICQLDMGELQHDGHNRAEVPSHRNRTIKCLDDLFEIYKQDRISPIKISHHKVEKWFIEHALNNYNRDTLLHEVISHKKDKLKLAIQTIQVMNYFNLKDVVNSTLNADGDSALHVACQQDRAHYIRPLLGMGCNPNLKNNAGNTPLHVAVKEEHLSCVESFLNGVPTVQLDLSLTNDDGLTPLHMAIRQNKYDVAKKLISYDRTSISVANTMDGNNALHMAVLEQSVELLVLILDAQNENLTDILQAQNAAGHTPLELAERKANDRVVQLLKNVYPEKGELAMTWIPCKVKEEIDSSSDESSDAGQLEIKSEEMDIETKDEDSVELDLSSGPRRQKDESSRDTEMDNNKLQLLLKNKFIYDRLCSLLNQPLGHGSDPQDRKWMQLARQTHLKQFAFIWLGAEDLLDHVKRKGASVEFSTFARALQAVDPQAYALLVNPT
The experiment in a line: co-IP.

B1: His-tagged Akirin (natural protein, Drosophila melanogaster, UniProt Q9VS59 1-201, looked up)
chain: MACATLKRALDWESMNQRPPKRRRCNPFGQAGSNAGPASPSRDGPSTSAGLPHTPSNRFAKDSTEPSPFSESSLAKMSPDKMAESLCNEIKRLHKRKQLPITSSALERMQDSESSGSEMGPESPRRPDSPQNLMRHGEKALFTFKQVQLICESMIKERENQLRERYESVLTTKLAEQYDAFVKFTYDQIQRRYEAAPSYLS
Consider B1, for which the binding result was “binds”.
